Assay results: paper PMC2491553, “P68 RNA Helicase (DDX5) Alters Activity of Cis- and Trans-Acting Factors of the Alternative Splicing of H-Ras”

T1: GST-hnRNP H (GST-H) (UniProt P31943 1-449)
T1 sequence: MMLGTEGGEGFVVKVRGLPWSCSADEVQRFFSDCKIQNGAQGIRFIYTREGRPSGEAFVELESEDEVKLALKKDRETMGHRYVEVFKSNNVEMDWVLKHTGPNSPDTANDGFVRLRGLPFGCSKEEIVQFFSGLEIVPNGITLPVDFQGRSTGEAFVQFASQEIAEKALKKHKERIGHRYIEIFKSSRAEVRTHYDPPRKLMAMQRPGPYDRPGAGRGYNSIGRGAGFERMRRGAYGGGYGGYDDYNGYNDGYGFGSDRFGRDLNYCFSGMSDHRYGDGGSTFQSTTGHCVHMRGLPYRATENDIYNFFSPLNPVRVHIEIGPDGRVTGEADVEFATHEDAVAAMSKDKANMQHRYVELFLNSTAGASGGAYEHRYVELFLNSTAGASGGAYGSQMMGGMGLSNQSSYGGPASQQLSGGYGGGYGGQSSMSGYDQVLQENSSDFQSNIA


Tests used:
GST-hnRNP H (GST-H) = target: T1, GST-hnRNP H (GST-H); experiment: EMSA; 100-400 ng GST-H; Crosslinking: 1x Roeder D buffer, 1 mM ATP, 1.7 mM MgCl2, 0.1 uM heparin, 30 min 30 C; EMSA: 1 pmol 32P-RNA, native 6-8% PAGE, buffer details not in material; conditions: protein: recombinant; tags: GST; label: 32P
GST-FUS (FUS/TLS) = GST-FUS (FUS/TLS) (UniProt P35637 1-526); experiment: EMSA; GST-FUS; Crosslinking: 1x Roeder D buffer, 1 mM ATP, 1.7 mM MgCl2, 0.1 uM heparin, 30 min 30 C; EMSA: 1 pmol 32P-RNA, native 6-8% PAGE, buffer details not in material; conditions: protein: recombinant; tags: GST; label: 32P
Chain of GST-FUS (FUS/TLS) (P35637 whole entry): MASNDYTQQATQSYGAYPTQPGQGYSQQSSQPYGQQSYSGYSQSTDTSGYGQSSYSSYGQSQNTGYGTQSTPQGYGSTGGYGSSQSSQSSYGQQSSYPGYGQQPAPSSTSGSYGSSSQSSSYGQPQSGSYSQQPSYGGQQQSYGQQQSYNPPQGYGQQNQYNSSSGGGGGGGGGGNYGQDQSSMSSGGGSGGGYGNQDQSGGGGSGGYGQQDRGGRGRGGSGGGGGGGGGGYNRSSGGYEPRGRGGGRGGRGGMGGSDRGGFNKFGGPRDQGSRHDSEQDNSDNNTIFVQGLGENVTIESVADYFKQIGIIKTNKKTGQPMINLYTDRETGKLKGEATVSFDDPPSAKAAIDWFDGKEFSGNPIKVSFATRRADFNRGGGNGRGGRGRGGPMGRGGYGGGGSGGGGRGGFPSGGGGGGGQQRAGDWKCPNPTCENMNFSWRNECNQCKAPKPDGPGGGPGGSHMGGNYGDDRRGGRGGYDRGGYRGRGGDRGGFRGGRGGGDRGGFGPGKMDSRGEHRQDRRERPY

| Binder | binding result (GST-hnRNP H (GST-H)) | binding result (GST-FUS (FUS/TLS)) |
| --- | --- | --- |
| GGGACGGCAGGGCGUGAGGGAGGCGAGGGCCGGGGUCUGGGCUCACGCCC (ssRNA) [rasISS1] | binds | no binding |
| GGGACGCCGGGGUCUGGGCUCACGCCC (ssRNA) [ΔrasISS1] | no binding | – |
